Experiment [1] deals with CD38 antigen on the cell surface (Daudi cells; NCI-H929 cells) (human, UniProt P28907 1-300). The experiment is described as follows: cell-based or functional assay.
The target of experiment [2] is T1, CD38 (human), analyte in Biacore (human, UniProt P28907 43-300, limits assumed).
T1 construct: also called 分析物CD38; 人的CD38蛋白
Kind of experiment: SPR (Biacore 8K), antibody captured on Protein A chip, CD38 as analyte, 25℃.

B1: RB0021-S3 (antibody)
chain 1: not shown
chain 2: DVQMTQSPSSVSASVGDRVTITCRSSQSPEHSNGNTYLHWYQQKPGKAPKLLIYKVSNRFSGVPSRFSGSGSGTDFTLTISSLQPEDFATYFCSQGTHFPFTFGQGTKVEIKRTVAAPSVFIFPPSDEQLKSGTASVVCLLNNFYPREAKVQWKVDNALQSGNSQESVTEQDSKDSTYSLSSTLTLSKADYEKHKVYACEVTHQGLSSPVTKSFNRGEC
For the molecule B1, the “ADCC reporter (Jurkat-Lucia-NFAT-CD16 + NCI-H929), EC50(μg/mL)” value in experiment [1] was found to be 0.011 µg/mL. In addition, binding in experiment [2] was put at a Kd of 1.04 nM.

B2: RB0021-S4 (antibody)
chain 1: not shown
chain 2: DVQMTQSPSSVSASVGDRVTITCRSSQSPEHSNGNTYLHWYQQKPGKAPKLLIYKVSNRFSGVPSRFSGSGSGTDFTLTISSLQPEDFATYFCSQGTHFPFTFGQGTKVEIKRTVAAPSVFIFPPSDEQLKSGTASVVCLLNNFYPREAKVQWKVDNALQSGNSQESVTEQDSKDSTYSLSSTLTLSKADYEKHKVYACEVTHQGLSSPVTKSFNRGEC
For the molecule B2, the “ADCC reporter (Jurkat-Lucia-NFAT-CD16 + NCI-H929), EC50(μg/mL)” value in experiment [1] came out at 0.014 µg/mL. Moreover, the Kd in experiment [2] is 1.04 nM.

Values taken from patent CN114075285A (REYOUNG SUZHOU BIOPHARMACEUTICAL CO LTD, dated 2022).
